Laboratory results published in paper PMC3198853.

Target: LDLRs
Assay: SPR

Tissue-type plasminogen activator (recombinant human tPA, Actilyse) (enzyme)
Kd: 330 nM
